B1: Azoarcus group I ribozyme (parent)
chain: GUGCCUUGCGCCGGGAAACCACGCAAGGGAUGGUGUCAAAUUCGGCGAAACCUAAGCGCCCGCCCGGGCGUAUGGCAACGCCGAGCCAAGCUUCGGCGCCUGCGCCGAUGAAGGUGUAGAGACUAGACGGCACCCACCUAAGGCAAACGCUAUGGUGAAGGCAUAGUCCAGGGAGUGGCGAAAGUCACACAAACCGG

The variants in this data set derive from B1. Briefly: reverse-splicing fitness (ratio to wild type); higher = more active; in vitro selection; Mg2+ level not given. In short, it runs like this: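 An in vitro group I ribozyme library with randomized positions was T7-transcribed and gel-purified. In triplicate, 10 pmol RNA in EPPS pH 7.5 was reacted with 50 pmoles of a 30-nt RNA substrate for 1 h at 37 °C across several added MgCl2 levels (1–48 mM), then stopped with EDTA. Products were reverse transcribed from a substrate-complementary primer, PCR-amplified and sequenced (HiSeq 4000). Fitness is a variant's read proportion after selection over that before, normalised to wild type.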
With C82G A120C C150U C169A U176C, the reverse-splicing fitness turned out to be 0.0133. As for C82G A120G A145C C150U C169G U176C, the reverse-splicing fitness stood at 0.0128. For C82G A120G A145C C150U C169G U176G, the reverse-splicing fitness stood at 0.00426. The value for C82G A120G A145C C150U C169G U176A was 0.0238. The same measure for C82G A120G A145G C169U U176C: 0.0199; for C82G A120G A145G C169U U176A: 0.0208; for C82G A120C C150U C169A: 0.0121. The value for C82G A120C C150U C169G was 0.00822; that for C82G A120C C150U C169U was 0.0173.

Take C82G A120C A145G C150G C169A: the reverse-splicing fitness turned out to be 0.0104. The value for C82G A120C A145G C150G C169G was 0.00813; that for C82G A120C A145G C150G C169U was 0.0121; that for C82G A120G A145C C150G C169G U176C was 0.00761.

In the case of C82G A120G A145C C150G C169G U176A, the reverse-splicing fitness worked out at 0.00772. The value for C82G A120G A145C C150G C169G U176G was 0.00412; that for C82G A120G A145G C169U was 0.0249. The value for C82G A120G A145G C169G was 0.0507; that for C82G A120G A145G C169A was 0.0319; that for C82G A120C C150G C169U U176C was 0.0109. As for C82G A120C C150G C169U U176G, the reverse-splicing fitness is 0.00535. The value for C82G A120C C150G C169U U176A was 0.00577; that for C82G A120C A145U C169G U176C was 0.0138.

Turning to C82G A120C A145U C169G U176A, the reverse-splicing fitness was 0.0121. As for C82G A120C A145U C169G U176G, the reverse-splicing fitness amounted to 0.00368. The value for C82G A120C A145G C150A C169G U176G was 0.0054; that for C82G A120C A145G C150A C169G U176C was 0.0256; that for C82G A120C A145G C150A C169G U176A was 0.0184. The same measure for C82G A120G A145C C169A U176C: 0.0123.

As for C82G A120G A145C C169A U176A, the reverse-splicing fitness came out at 0.0144. The same measure for C82G A120G A145C C169A U176G: 0.0031; for C82G A120G A145C C169U U176A: 0.0207; for C82G A120G A145C C169U U176G: 0.00392. Turning to C82G A120G A145C C169U U176C, the reverse-splicing fitness came to 0.0185. With C82G A120G A145G C150U C169A U176A, the reverse-splicing fitness was 0.0171. The value for C82G A120G A145G C150U C169A U176C was 0.0181.

Consider C82G A120G A145G C150U C169A U176G, for which the reverse-splicing fitness came to 0.00521. For C82G A120C C150U U176C, the reverse-splicing fitness is 0.0574.

For the variant C82G A120C C150U U176A, the reverse-splicing fitness is 0.0429. The value for C82G A120C C150U U176G was 0.0136.

Regarding C82G A120C A145U C150U C169A U176G, the reverse-splicing fitness turned out to be 0.00538. The value for C82G A120C A145U C150U C169A U176A was 0.015; that for C82G A120C A145U C150U C169A U176C was 0.00984. The same measure for C82G A120G A145C C150U: 0.0111; for C82G A120G A145C C150G: 0.00798.

Turning to C82G A120G A145C C150A, the reverse-splicing fitness is 0.00852.

For C82G A120G A145C C150A U176C, the reverse-splicing fitness amounted to 0.00828. On to C82G A120G A145C C150A U176G, for which the reverse-splicing fitness was 0.00453. As for C82G A120G A145C C150A U176A, the reverse-splicing fitness was 0.0102.

As for C82G A120C A145U C150A C169U, the reverse-splicing fitness is 0.00929. For the variant C82G A120C A145U C150A C169A, the reverse-splicing fitness was found to be 0.00989.

For C82G A120C A145U C150A C169G, the reverse-splicing fitness is 0.00739. The same measure for C82G A120G A145G C150U U176A: 0.0107. As to C82G A120G A145G C150U U176C, the reverse-splicing fitness is 0.0211.

With C82G A120G A145G C150U U176G, the reverse-splicing fitness was found to be 0.0072.

Turning to C82G A120C A145G C169U, the reverse-splicing fitness worked out at 0.0256.

On to C82G A120C A145G C169G, for which the reverse-splicing fitness amounted to 0.00863. The value for C82G A120C A145G C169A was 0.0105. Turning to C82G A120C A145C C150U U176G, the reverse-splicing fitness was 0.00925. Consider C82G A120C A145C C150U U176A, for which the reverse-splicing fitness came to 0.0221. C82G A120C A145C C150U U176C: the reverse-splicing fitness was 0.0273. The value for C82G A120C A145U C169A U176G was 0.00379. The same measure for C82G A120C A145U C169A U176C: 0.00989; for C82G A120C A145U C169A U176A: 0.0121; for C82G A120C A145U C150A U176A: 0.0188. For the variant C82G A120C A145U C150A U176G, the reverse-splicing fitness came to 0.00735. The value for C82G A120C A145U C150A U176C was 0.0216; that for C82G A120G A145C C150G C169A U176A was 0.00893.

Take C82G A120G A145C C150G C169A U176C: the reverse-splicing fitness is 0.00681. For C82G A120G A145C C150G C169A U176G, the reverse-splicing fitness is 0.00487. Regarding C82G A120G A145C U176G, the reverse-splicing fitness was determined as 0.00484. The same measure for C82G A120G A145C U176A: 0.0133; for C82G A120G A145C U176C: 0.0158; for C82G A120C A145U C150A C169A U176G: 0.00421. With C82G A120C A145U C150A C169A U176A, the reverse-splicing fitness was 0.0178.

On to C82G A120C A145U C150A C169A U176C, for which the reverse-splicing fitness was found to be 0.0107. C82G A120C C150A: the reverse-splicing fitness was 0.0228.

With C82G A120C C150G, the reverse-splicing fitness amounted to 0.0159. The same measure for C82G A120C C150U: 0.108. The same measure for C82G A120G A145C C150U U176A: 0.00928. The same measure for C82G A120G A145C C150U U176C: 0.00922. As for C82G A120G A145C C150U U176G, the reverse-splicing fitness worked out at 0.00485. The same measure for C82G A120C A145U C169U U176A: 0.0158; for C82G A120C A145U C169U U176G: 0.00344; for C82G A120C A145U C169U U176C: 0.0154.
